Experimental data as given in patent US20200262910A1 (SINGAPORE HEALTH SERVICES PTE, published 2020).

T1: Mouse IL11RA (50075-M08H, SinoBiological); mouse interleukin 11 receptor alpha chain 1 (mouse, UniProt Q64385 24-367)
T1 construct: also called mIL11RA1; IL11RA1
T1 sequence (looked up): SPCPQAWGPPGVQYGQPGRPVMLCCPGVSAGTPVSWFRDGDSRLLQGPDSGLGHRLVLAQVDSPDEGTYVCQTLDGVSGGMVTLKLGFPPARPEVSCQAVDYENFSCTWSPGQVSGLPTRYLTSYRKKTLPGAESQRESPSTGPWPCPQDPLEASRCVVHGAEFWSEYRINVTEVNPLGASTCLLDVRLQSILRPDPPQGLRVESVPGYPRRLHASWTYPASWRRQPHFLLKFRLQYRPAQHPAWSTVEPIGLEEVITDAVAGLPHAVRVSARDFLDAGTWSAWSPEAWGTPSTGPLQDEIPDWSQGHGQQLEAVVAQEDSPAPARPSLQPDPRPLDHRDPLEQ

T2: Human IL11RA (10252-H08H, SinoBiological) (human, UniProt Q14626 23-365)
T2 construct: also called hIL11RA
T2 sequence: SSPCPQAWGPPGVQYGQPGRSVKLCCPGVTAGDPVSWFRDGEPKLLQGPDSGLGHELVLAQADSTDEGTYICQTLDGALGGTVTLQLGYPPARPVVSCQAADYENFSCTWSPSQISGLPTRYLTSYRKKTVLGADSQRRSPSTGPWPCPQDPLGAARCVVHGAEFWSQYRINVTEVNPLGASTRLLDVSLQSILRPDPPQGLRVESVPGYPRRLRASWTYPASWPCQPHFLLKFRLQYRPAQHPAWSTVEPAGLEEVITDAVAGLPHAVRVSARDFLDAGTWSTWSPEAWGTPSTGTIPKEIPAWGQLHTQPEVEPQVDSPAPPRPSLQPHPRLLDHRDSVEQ


Key:
[1] = molecular target: T1, Mouse IL11RA (50075-M08H, …); assay: SPR (BIAcore T200): ligand mIL11 immobilized, analyte mIL11RA, 1:1 Langmuir fit
Protocol: (§1) SPR measurements were performed on a BIAcore T200 (GE Healthcare) at 25° C. Buffers were degassed and filter-sterilized through 0.2 μm filters prior to use. RhIL11 or rmIl11 was immobilized onto a carboxymethylated dextran (CM5) sensor chip using standard amine coupling chemistry. For kinetic analysis, a concentration series (3.125 nM to 100 nM) of human IL11RA or mouse Il11ra was injected over the rhIL11, rmIl11 and reference surfaces at a flow rate of 40 μl min⁻¹. All the analytes were dissolved in HBS-EP+ (BR100669, GE Healthcare) containing 1 mg ml⁻¹ BSA. The association and dissociation were measured for 150 s and 200 s respectively. After each analyte injection, the surface was regenerated by a 30 s injection of Glycine pH2.5, followed by a 5 min stabilisation period. All sensorgrams were aligned and double-referenced. Affinity and kinetic constants were determined by fitting the corrected sensorgrams with the 1:1 Langmuir model using BIAevaluation v3.0 software (GE Healthcare). The equilibrium binding constant KD was determined by the ratio of the binding rate constants kd/ka.

[2] = molecular target: T1, Mouse IL11RA (50075-M08H, …); assay: SPR (BIAcore T200), IL11 immobilized on CM5, receptor as analyte, 1:1 Langmuir fit; rmIL11 (mouse ligand) on mouse IL11RA1
Protocol: as §1

[3] = molecular target: T1, Mouse IL11RA (50075-M08H, …); assay: SPR (BIAcore T200, 25 C): rmIL11 immobilized on a CM5 chip, mouse IL11RA injected as analyte (3.125 to 100 nM), 1:1 Langmuir fit
Protocol: as §1

[4] = molecular target: T1, Mouse IL11RA (50075-M08H, …); assay: SPR (BIAcore T200, 25 C): rhIL11 immobilized on a CM5 chip, mouse IL11RA injected as analyte (3.125 to 100 nM), 1:1 Langmuir fit
Protocol: as §1

[5] = molecular target: T1, Mouse IL11RA (50075-M08H, …); assay: SPR (BIAcore T200), IL11 immobilized on CM5, receptor as analyte, 1:1 Langmuir fit; rhIL11 (human ligand) on mouse IL11RA1
Protocol: as §1

[6] = molecular target: T2, Human IL11RA (10252-H08H, …); assay: SPR (BIAcore T200, 25 C): rhIL11 immobilized on a CM5 chip, human IL11RA injected as analyte (3.125 to 100 nM), 1:1 Langmuir fit
Protocol: as §1

[7] = molecular target: T1, Mouse IL11RA (50075-M08H, …); assay: SPR (BIAcore T200): ligand hIL11 immobilized, analyte mIL11RA, 1:1 Langmuir fit
Protocol: as §1

[8] = molecular target: T2, Human IL11RA (10252-H08H, …); assay: SPR (BIAcore T200): ligand hIL11 immobilized, analyte hIL11RA, 1:1 Langmuir fit
Protocol: as §1

Row | Kd [1] [nM] | koff [1] [s⁻¹] | kon [1] [M⁻¹ s⁻¹] | Kd [2] [nM] | Kd [3] [nM] | Kd [4] [nM] | Kd [5] [nM] | Kd [6] [nM] | Kd [7] [nM] | koff [7] [s⁻¹] | kon [7] [M⁻¹ s⁻¹] | Kd [8] [nM] | koff [8] [s⁻¹] | kon [8] [M⁻¹ s⁻¹] | Binder
1 | 94.1 | 0.0115 | 122000 | 94 | 94.1 |  |  |  |  |  |  |  |  |  | Recombinant mouse IL11 (rmIL11, UniProtKB: P47873, Genscript) (ligand, UniProt P47873 22-199, looked up, Amine-coupled to a CM5 chip in SPR; also called biotinylated mouse Il11) PGPPAGSPRVSSDPRADLDSAVLLTRSLLADTRQLAAQMRDKFPADGDHSLDSLPTLAMSAGTLGSLQLPGVLTRLRVDLMSYLRHVQWLRRAGGPSLKTLEPELGALQARLERLLRRLQLLMSRLALPQAAPDQPVIPLGPPASAWGSIRAAHAILGGLHLTLDWAVRGLLLLKTRL
2 |  |  |  |  |  | 72.3 | 72 | 45.3 | 72.3 | 0.012 | 166000 | 45.3 | 0.0204 | 451000 | Recombinant human IL11 (rhIL11, UniProtKB:P20809, Genscript) (ligand, It was amine-coupled to a CM5 chip in SPR) PGPPPGPPRVSPDPRAELDSTVLLTRSLLADTRQLAAQLRDKFPADGDHNLDSLPTLAMSAGALGALQLPGVLTRLRADLLSYLRHVQWLRRAGGSSLKTLEPELGTLQARLDRLLRRLQLLMSRLALPQPPPDPPAPPLAPPSSAWGGIRAAHAILGGLHLTLDWAVRGLLLLKTRL
